This note sets out measurements from article PMC5336307, “The thermodynamics of Pr55Gag-RNA interaction regulate the assembly of HIV”.

Experiment in all cases: ITC; ITC at 30 C in TBS with 1 mM TCEP (pH not stated); 8 uM (6-10) protein in cell, 40 uM (15-50) nucleic acid in syringe; one-site model
The target in series [1] is T1, Pr55Gag (HIV-1, UniProt P12493 1-500). Particulars: protein: recombinant, tags: C-terminal His.
Series [2] addresses Pr55Gag-TEV (HIV-1, UniProt P12493 1-500). Particulars: protein: recombinant; tags: His removed by TEV protease; TEV site remnant at C-term.
The target of series [3] is Pr50GagΔp6 (HIV-1, UniProt P12493 1-448). Particulars: protein: recombinant, tags: C-terminal His.
For series [4], the target named is Pr50GagΔp6-TEV (HIV-1, UniProt P12493 1-448). Particulars: protein: recombinant; tags: His removed by TEV protease; TEV site remnant at C-term.
The target in series [5] is p15NC-SP2-p6 (HIV-1, UniProt P12493 378-500). The following applies: protein: recombinant, tags: C-terminal His.
Series [6] concerns the target p7NC (HIV-1, UniProt P12493 378-432). Particulars: protein: recombinant, tags: C-terminal His.
For series [7], the target named is T1, Pr55Gag. The following applies: protein: recombinant; tags: C-terminal His.

GAUGGGAUGGGAUGGGAUGG (ssRNA) [4x 5'-GAUGG-3' (GU-containing)]: the binding result in series [1], in series [2], in series [3], in series [4], in series [5] and in series [6] was “binds” in each case.

For the molecule GGACUAGCGGAGGCUAGUCC (structured_RNA) [Psi SL3 RNA (20mer)], the Kd in series [1] (hairpin) was 81 ± 25 nM; in series [3] (hairpin), 98 ± 3 nM; in series [5] (hairpin) it was 57 ± 11 nM; in series [6] (hairpin), 48 ± 23 nM.

With GAGAAGAGAAGAGAAGAGAA (ssRNA) [4x 5'-GAGAA-3' (A-containing)], the binding signal in series [7] is ~3 fold stronger Kd than GU-containing RNA (average over sets).

As to CUUAGAAAUAGGGCAGCAUAGAACAAAAAUAGAGGAA (ssRNA) [HIVNL4.3RNA2671-2707], the binding result in series [2] and in series [4] was “binds” throughout.
